One molecule from publication PMC5711526 can be followed below.

In the data set the target is human alpha-thrombin (Homo sapiens, UniProt P00734;P00734 328-363;364-622). The experiment in a line: native ESI-MS.

Consider GGTTGGTGTGGTTGG (structured_DNA) [TBA (Bock thrombin binding aptamer, 15-mer)], for which the binding result was “binds”.
